Experimental data published in patent publication US20200339681A1 (ORUM THERAPEUTICS, published 2020).
Substitutions are numbered along the chain they refer to. Numbers in names are those of the source. One block for each binder: values may come before it.

Key:
[1] = molecular target: T1, EpCAM (epithelial cell adhesion molecule) on human colorectal cancer cell lines SW480 and LoVo (human, UniProt P16422 24-314); assay: flow cytometry, 500 nM antibody, Alexa488 anti-human Fc
T1 construct: whole, on cells; also called cell-surface EpCAM
T1 sequence (looked up): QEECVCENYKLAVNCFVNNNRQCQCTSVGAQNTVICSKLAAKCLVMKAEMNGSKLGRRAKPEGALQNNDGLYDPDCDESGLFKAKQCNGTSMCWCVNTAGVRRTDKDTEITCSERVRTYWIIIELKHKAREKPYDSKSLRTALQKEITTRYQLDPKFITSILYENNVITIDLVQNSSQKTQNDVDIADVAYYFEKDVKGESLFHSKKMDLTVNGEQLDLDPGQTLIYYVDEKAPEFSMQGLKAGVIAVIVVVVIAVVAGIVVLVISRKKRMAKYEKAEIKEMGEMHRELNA

[2] = molecular target: T1, EpCAM (epithelial cell adhesion …); assay: flow cytometry on LoVo cells, 100 nM antibody, Alexa488 anti-human Fc
[3] = molecular target: T2, human neonatal Fc receptor (hFcRn) (human, UniProt P55899 24-297; P61769 21-119, limits assumed); assay: SPR (Biacore 2000), FcRn immobilised, pH 6.0, antibody 2000-62.5 nM; pH 6.0
T2 construct: Immobilised on the CM5 chip, pH 6.0

[4] = molecular target: T2, human neonatal Fc receptor (hFcRn); assay: SPR (Biacore 2000), FcRn immobilised, pH 6.0, antibody 200-6.25 nM
[5] = molecular target: T2, human neonatal Fc receptor (hFcRn); assay: SPR (Biacore 2000), FcRn immobilised, pH 6.0, antibody 2000-62.5 nM
[6] = molecular target: T3, integrin αvβ3 on integrin αvβ3-expressing K562 cells (UniProt P06756 31-1048; P05106 27-788, limits assumed); assay: flow cytometry, 500 nM antibody, Alexa488 anti-human Fc
T3 construct: whole, on cells; also called integrin ανβ3

[7] = molecular target: T4, integrin αvβ5 on human colorectal cancer cell lines SW480 and LoVo (human, UniProt P06756 31-1048; P18084 24-799); assay: as above
T4 construct: whole, on cells; also called integrin ανβ5

B3: epRas13 (RT22 VH, IgG1 N434D, hT4-ep59 GSSG light chain) (antibody)
heavy: not shown
VL: EHLHCLGSLCWPGSSGDIQMTQSPSSLSASVGDRVTITCKSSQSLLNSRDGKNYLAWYQQKPGKAPKLLIYWASTRESGVPSRFSGSGSGTDFTLTISSLQPEDFATYFCQQYWYWMYTFGQGTKVEIKR
- Kd [3]: 2700 nM

B6: RT22-i38 MG (antibody, IgG1, V domains shown)
VH: EVQLVESGGGLVQPGGSLRLSCAASGFTFSDFSMSWVRQAPGKGLEWVSYISRTSHTTYYADSVKGRFTISRDNSKNTLYLQMNSLRAEDTAVYYCARGFKMDYWGQGTLVTVSS
VL: DLVMTQSPSSLSASVGDRVTITCKSSQSLLNSRTGKTYLAWYQQKPGKAPKLLIYWASTRESGVPSRFSGSGSGTDFTLTISSLQPEDFATYFCQQYWYWMYTFGQGTKVEIKR
notes: Intact IgG1,κ
- binding result [6]: binds
- binding result [7]: binds

B8: RT22-i39 MG (antibody, IgG1, V domains shown)
VH: B6 VH
VL: DGARYCRGDCFDGMGSSSNDLVMTQSPSSLSASVGDRVTITCKSSQSLLNSRDGKNYLAWYQQKPGKAPKLLIYWASTRESGVPSRFSGSGSGTDFTLTISSLQPEDFATYFCQQYWYWMYTFGQGTKVEIKR
notes: Intact IgG1,κ
- binding result [6]: binds
- binding result [7]: binds

More lines, now with the values ahead:

- binding result [1]: binds
B1: RT22-ep59 MG (antibody, human IgG1)
heavy: not shown
VL: EHLHCLGSLCWPMGSSSNDIQMTQSPSSLSASVGDRVTITCKSSQSLLNSRDGKNYLAWYQQKPGKAPKLLIYWASTRESGVPSRFSGSGSGTDFTLTISSLQPEDFATYFCQQYWYWMYTFGQGTKVEIKR
notes: also called epRas03 MG

- binding result [2]: binds
B2: epRas23 MG (antibody, human IgG1)
heavy: not shown
VL: B1 VL

- Kd [4]: 148 nM
B4: epRas03 (RT22 VH, IgG1, hT4-ep59 GSSG light chain) (antibody)
heavy: not shown
VL: B3 VL
notes: Differs from epRas03 MG by the linker of the light chain

- Kd [5]: 3570 nM
B5: epRas83 (RT22 VH, IgG1 LALA-PG, N434D, hT4-ep59 GSSG light chain) (antibody)
heavy: not shown
VL: B3 VL

- binding result [1]: binds
B7: RT22-ep58 MG (antibody, IgG1, V domains shown)
VH: B6 VH
VL: B6 VL with L2I, V3Q
notes: Intact IgG1,κ
